Experimental data from US20040071690A1.

How the values were obtained:
NC41 Fab [1] = experiment: sedimentation equilibrium of the isolated complex
NC41 Fab [2] = experiment: BIAcore SPR; NC41 Fab immobilised, scFv as analyte (apparent, multivalent)
NC41 Fab [3] = experiment: gel filtration FPLC on Superose 12
NC41 Fab [4] = experiment: BIAcore SPR; NC41 Fab immobilised, scFv as analyte
NC10 scFv-10 dimer = experiment: BIAcore SPR; scFv-10 dimer immobilised (200 RU), Fab′ as analyte
[5] = target: NC10 scFv-0 trimer (VH-VL); experiment: BIAcore SPR; scFv-0 trimer immobilised (450 RU), Fab′ as analyte
NC10 scFv-15 monomer [6] = experiment: BIAcore SPR; scFv-15 monomer immobilised (~2000 RU), from the RU increase
NC10 scFv-5 dimer = experiment: BIAcore SPR; scFv-5 dimer immobilised (200 RU), Fab′ as analyte
NC10 scFv-15 monomer [7] = experiment: BIAcore SPR; scFv-15 monomer immobilised (2000 RU), Fab′ as analyte
[8] = target: Anti-idiotype 3-2G12 Fab′; experiment: sedimentation equilibrium of the isolated complex, fitted as a single species
[9] = target: Anti-idiotype 3-2G12 Fab′; experiment: sedimentation equilibrium of the isolated complex
[10] = target: Anti-idiotype 3-2G12 Fab′; experiment: BIAcore SPR; 3-2G12 Fab′ immobilised (1000 RU), scFv as analyte

Question: Which molecular mass of complex (experimental) (NC41 Fab [1]) does the source give for 11-1G10 scFv-0 trimer here?
Answer: 262000 Da

Question: What about the koff (NC41 Fab [2]) of the same substance?
Answer: 8.2e-05 s⁻¹

Question: And the apparent molecular mass of complex (NC41 Fab [3])?
Answer: 245 kDa

Question: Which results are given for 11-1G10 scFv-15 monomer?
Answer: koff (NC41 Fab [4]): 0.00032 s⁻¹; molecular mass of complex (experimental) (NC41 Fab [1]): 78600 Da; apparent molecular mass of complex (NC41 Fab [3]): 79 kDa

Question: Anti-idiotype 3-2G12 Fab′ was tested. Which Ka (NC10 scFv-10 dimer) did it give?
Answer: 1.3e+08 M⁻¹

Question: And the koff (NC10 scFv-10 dimer)?
Answer: 0.0029 s⁻¹

Question: What about the kon (NC10 scFv-10 dimer) of the same substance?
Answer: 370000 M⁻¹ s⁻¹

Question: What about the Ka [5] of the same substance?
Answer: 1.13e+08 M⁻¹

Question: What about the koff [5] of the same substance?
Answer: 0.0023 s⁻¹

Question: What about the kon [5] of the same substance?
Answer: 260000 M⁻¹ s⁻¹

Question: What about the percent of immobilised protein active (NC10 scFv-15 monomer [6]) of the same substance?
Answer: < 10%

Question: What about the Ka (NC10 scFv-5 dimer) of the same substance?
Answer: 1.06e+08 M⁻¹

Question: And the koff (NC10 scFv-5 dimer)?
Answer: 0.0033 s⁻¹

Question: What about the kon (NC10 scFv-5 dimer) of the same substance?
Answer: 350000 M⁻¹ s⁻¹

Question: And the Ka (NC10 scFv-15 monomer [7])?
Answer: 2.5e+08 M⁻¹

Question: What about the koff (NC10 scFv-15 monomer [7]) of the same substance?
Answer: 0.0021 s⁻¹

Question: And the kon (NC10 scFv-15 monomer [7])?
Answer: 500000 M⁻¹ s⁻¹

Question: NC10 scFv-0 trimer (VH-VL) was tested. Which molecular mass of complex (measured, apparent average) [8] did it give?
Answer: 212000 Da

Question: How did the molecular mass of complex (measured) [9] turn out when NC10 scFv-5 dimer was run?
Answer: 156000 Da

Question: With NC10 scFv-15 monomer as the substance, how does the Ka [10] read?
Answer: 4.2e+08 M⁻¹

Question: And the koff [10]?
Answer: 0.00174 s⁻¹

Question: And the kon [10]?
Answer: 740000 M⁻¹ s⁻¹

Question: What about the molecular mass of complex (measured) [9] of the same substance?
Answer: 77900 Da
